# Source: US20090282582A1, “ENVIRONMENTAL STRESS RESPONSIVE PROMOTER AND METHOD OF TISSUE-SPECIFIC GENE EXPRESSION USING THE SAME” (RIKEN, priority 2006, published 2009)
# B1: Promoter of RAFL05-17-B13: environmental stress responsive promoter DNA, SEQ ID NO: 1, upstream of At1g01470 (LEA protein) (nucleic acid, listed as Arabidopsis thaliana)
# DNA: CCGCCAACTACCAACACCGACATATGTGCTTTCGGCAGTTTTGATATCATTCCAAAATTTCAATTATTATTTATCAAATTTATTTTCTTGGTAAAAGTTTAATTAATTTCAATTATTTGAATGTCTTAATTCACTGATTACAAATTATATATGTAATATATACATAACAATTTCGTTCGTGGAGTGTTATTATACTCCTTAAGCGAATCTGTATATTTTAAATAAAATTTTGATTTATGCACACGTACATGTTCAATTGAAACGTTTTCCCTAACTATAGATGCCAATAAATAATAAGTTGATTTTTAAAATGTACAAAACAAAAGGTACCGTTTTGTAAAATTTTGCAACCAAAAAGTACAATCGGCCGTTGAAAATCGTGGAACCAAACACTAATTAAAGAGAAGTGTGAATATAATCTAGTGTTTGCGGATTTATATTATAAAATTTGTGTATCACTAAAATGTCAAAGCATGCTTTGACTGGTCAATAAGTCAAATTAACTAACAAACCATGCGAGGCGTAGGTTTGACTTCTTAACATAAATGCTGACTCAGTTTTTCCATTCCGCAGCTGTCGACTAATTGGACACGCTTCTTCCAATCCCTTTCCACTAATCATCCATCAACACGTGACATGCCTACAGTGCACGACTTCACAGTGATCATGTCAAAGTTTTGTTTTTAAGAGAAGAAGATTCACGACTTCACAGTGATCATAGTCCAGTTACAAATTTGAATGGGCTTATGGCCTGTGGCCCATTTAAGTTTGACCTTAATATCCATCAGAAACCCATACCAATACGGGTCATAAGTGCATTGTCCATATAGTGTACCGCAATGCATGGGAGTACTACTACATTCCACCGACGTGCATATGGGGGGACATGGTCGGTCCATTAATCCCTTGCGCATCTTATTCCTTACGCGAATACTTTTCCCTCTTTTAGTTTTGTATAATACTTTCCATTTTTTTGGTATTAAATTTATCGTGTGACTATCTAAAAAGGTATTTAATTATCTAGTTTAGCTATAACTGCAAACAAAATATCTATTTTCATGAATGATATATTTTTGAAATAAAATATTGTTGTCATGTAACGAAAAAATCAAAAATCAAGCAGAAGACACGTATAACCCACGCTTTCACTCTCACTCGTGGAAAACCCTCACACGTACACAAACCATTATAAAATTTAATCCATTTACATCGACCGACTTCATAAGAACATCGTAATCCCATCCGTTTATATATATATTCCAAGTTAAACTTCATATCATACACACAAACCTAAAACACCGAAACAAAAACAAAGAGATTTAAACAAGAAGAGTTATT
# Assays:
# [1] = test system: Arabidopsis thaliana (columbia ecotype) plant body; test: full-length cDNA microarray analysis of gene expression levels after environmental stress application; settings: in vivo
# Experimental: In this example, the gene expression levels at the time of application of various types of environmental stresses were analyzed using microarrays. Specifically, the microarrays described in Seki et al., “Monitoring the expression profiles of 7000 Arabidopsis genes under drought, cold, and high-salinity stresses using a full-length cDNA microarray,” Plant J. 31: 279-292, 2002, were used, and analysis was carried out in accordance with the method similar to the method described therein. Various types of environmental stresses were applied to a plant body under the following conditions. Specifically, low-temperature stress application was carried out by introducing a plate containing a plant body into a low-temperature chamber (4° C.). Dehydration stress application was carried out by capturing the plant body with forceps while refraining from damaging the plant body, roughly removing moisture from the plant body on a Kim Towel, placing the plant body on another plate, placing the plate in a clean bench while leaving the lid open, letting it stand for 2 hours, and then closing the lid. Salt stress application was carried out by dispensing a mixture of MS medium (containing 1% sucrose, 0.1% agar, and 1 mM luciferin) with 250 mM NaCl to the roots of the plant bodies (200 μl per plant body) using a Pipetman. ABA stress application was carried out by dispensing a mixture of MS medium (containing 1% sucrose, 0.1% agar, and 1 mM luciferin) with 100 μM ABA to the roots of the plant bodies (200 μl per plant body) using a Pipetman. As a plant body to which environmental stress is to be applied, Arabidopsis thaliana (columbia ecotype), which had been cultivated on a germination medium containing Murashige and Skoog Salt, 3% sucrose, and […] for 3 weeks, was used. Cultivation conditions were determined so as to maintain the temperature in the chamber at 22° C. with a 16-hour light period and an 8-hour dark period. Total RNA was extracted from plant bodies after environmental stress application or from plant bodies to which no environmental stress had been applied using the TRIZOL Reagent (Life Technologies), and mRNA was extracted using the mRNA isolation kit (Militenyi Biotec Auburn). In accordance with the method described in the above article, mRNA samples were reversely transcribed in the presence of Cy3 dUTP or Cy5 dUTP (Amersham Pharmacia). Microarray analysis was carried out using cDNAs obtained via reverse transcription. Data obtained via microarray analysis were analyzed using the Quantarray Version 2.0 (GSI Lumonics).
# [2] = test system: transgenic Arabidopsis thaliana plant body (luciferase reporter gene); test: luciferase assay of promoter::LUC transgenic plants after environmental stress application; format: in vivo; settings: for Tissue allowing specific induction: summary over stress types
# Experimental: Specifically, promoter regions were isolated from these genes, transgenic plants in which luciferase reporter genes were to be expressed under the control of such promoters were prepared, and tissue specificity of the promoters was inspected via luciferase assay.
# In this example, DNA fragments containing promoter regions of the genes identified in Example 1 were recovered via PCR.
# The nucleotide sequences of the amplified DNA fragments were determined in accordance with a conventional technique to confirm that mutagenesis, such as substitution or deletion, was not introduced thereinto. After the absence of mutagenesis was confirmed, the recovered DNA fragments were introduced into the vector for promoter analysis (i.e., a vector prepared by introducing the Gateway recombinant sequence (tradename: Gateway Vector Conversion System, Invitrogen) and the luciferase reporter gene into the pGreen vector (Plant Molecular Biology 42: 819-832, 2000)) using the Gateway recombination system to construct a recombinant vector.
# The recombinant vector prepared in (1) above was introduced into a plant via Agrobacterium infection. When a gene is introduced via Agrobacterium infection, a process of infecting a plant with Agrobacterium containing a plasmid comprising the target gene construct is necessary. This process was carried out via vacuum infiltration. Specifically, a plant body of Arabidopsis thaliana that had been grown in soil comprising vermiculite and an equivalent amount of pearlite was soaked in a culture solution of Agrobacterium containing the recombinant vector prepared in (1). The resultant was placed in a desiccator, suctioned with a vacuum pump to 65 to 70 mmHg, and then allowed to stand at room temperature for 5 to 10 minutes. The pot was transferred onto a tray, covered with a wrap, and kept moistened. The wrap was removed on the following day, the plant was allowed to grow in that state, and seeds were then harvested.
# Subsequently, seeds were sown on MS agar medium to which antibiotic hygromycin has been added in order to select an individual having the recombinant vector prepared in (1). Arabidopsis thaliana that had been grown in this medium was transferred to a pot and allowed to grow therein. Thus, seeds of transgenic plants to which the recombinant vector prepared in (1) has been introduced were obtained.
# The seeds of the transgenic plant lineage prepared in (2) were sowed on MS agar medium. The plant body 10 days after sowing was used for luciferase assay.
# At the outset, 1 mM luciferin (containing 0.01% Triton-X) was sprayed over the entire plant body 5 times. After the plant body was allowed to stand in the dark for 5 minutes, luciferase luminescence was assayed using ARGUS (assay after treatment for 0 hours). Subsequently, various types of environmental stresses were applied (see below). Low-temperature stress application was carried out by introducing a plate containing a plant body into a low-temperature chamber (4° C.). Dehydration stress application was carried out by capturing the plant body with forceps while refraining from damaging the plant body, roughly removing moisture from the plant body on a Kim Towel, placing the plant body on another plate, placing the plate in a clean bench while leaving the lid open, letting it stand for 2 hours, and then closing the lid. Salt stress application was carried out by dispensing a mixture of MS medium (containing 1% sucrose, 0.1% agar, and 1 mM luciferin) with 250 mM NaCl to the roots of the plant bodies (200 μl per plant body) using a Pipetman. ABA stress application was carried out by dispensing a mixture of MS medium (containing 1% sucrose, 0.1% agar, and 1 mM luciferin) with 100 μM ABA to the roots of the plant bodies (200 μl per plant body) using a Pipetman.
# Luciferase luminescence was assayed 2, 5, and 10 hours after the above various types of environmental stresses had been applied using the ARGUS system (Hamamatsu Photonics). […]
Molecule,Environmental stress type to which the promoter responds [1],Tissue in which specific induction of expression is realized ([2]; ABA stress (100 μM ABA)),"Tissue in which specific induction of expression is realized ([2]; ABA stress (100 μM ABA), listed as promoter of RAFL05-20-M16)","time after stress application at which activity to induce gene expression is exhibited ([2]; ABA stress, root tissue)",Tissue in which specific induction of expression is realized ([2]; Dehydration stress),time after stress application at which activity to induce gene expression is exhibited ([2]; Dehydration stress),"Tissue in which specific induction of expression is realized ([2]; Dehydration stress, listed as promoter of RAFL05-20-M16)",Tissue allowing specific induction [2],"Tissue in which specific induction of expression is realized ([2]; ABA stress (100 μM ABA), listed as promoter of RAFL05-17-B13)","Tissue in which specific induction of expression is realized ([2]; Dehydration stress, listed as promoter of RAFL05-17-B13)",Tissue in which specific induction of expression is realized ([2]; Low temperature stress (4° C.)),"Tissue in which specific induction of expression is realized ([2]; Low temperature stress (4° C.), listed as promoter of RAFL05-17-B13)",Tissue in which specific induction of expression is realized ([2]; Salt stress (250 mM NaCl)),"Tissue in which specific induction of expression is realized ([2]; Salt stress (250 mM NaCl), listed as promoter of RAFL05-17-B13)"
"Promoter of RAFL05-20-M16: environmental stress responsive promoter DNA, SEQ ID NO: 3, upstream of At2g46680 (ATHB7 transcription factor)",Dehydration and salt,Root tissue,root tissue,about 2 hours,Root tissue,about 10 hours,root tissue,Stem and leaf tissue and root tissue,,,,,,
B1,Dehydration and salt,Stem and leaf tissue (weak),,,Stem and leaf tissue and root tissue,,,Stem and leaf tissue and root tissue,weak gene expression in stem and leaf tissue,stem and leaf tissue and root tissue,Stem and leaf tissue,stem and leaf tissue,Stem and leaf tissue,stem and leaf tissue
